Source: article doi:10.1101/2021.10.29.466147 (bioRxiv, 2021)

T1: Ycg1, HEAT-repeat subunit II of S. cerevisiae condensin (S. cerevisiae, UniProt Q06680 1-1035)
T1 sequence (looked up): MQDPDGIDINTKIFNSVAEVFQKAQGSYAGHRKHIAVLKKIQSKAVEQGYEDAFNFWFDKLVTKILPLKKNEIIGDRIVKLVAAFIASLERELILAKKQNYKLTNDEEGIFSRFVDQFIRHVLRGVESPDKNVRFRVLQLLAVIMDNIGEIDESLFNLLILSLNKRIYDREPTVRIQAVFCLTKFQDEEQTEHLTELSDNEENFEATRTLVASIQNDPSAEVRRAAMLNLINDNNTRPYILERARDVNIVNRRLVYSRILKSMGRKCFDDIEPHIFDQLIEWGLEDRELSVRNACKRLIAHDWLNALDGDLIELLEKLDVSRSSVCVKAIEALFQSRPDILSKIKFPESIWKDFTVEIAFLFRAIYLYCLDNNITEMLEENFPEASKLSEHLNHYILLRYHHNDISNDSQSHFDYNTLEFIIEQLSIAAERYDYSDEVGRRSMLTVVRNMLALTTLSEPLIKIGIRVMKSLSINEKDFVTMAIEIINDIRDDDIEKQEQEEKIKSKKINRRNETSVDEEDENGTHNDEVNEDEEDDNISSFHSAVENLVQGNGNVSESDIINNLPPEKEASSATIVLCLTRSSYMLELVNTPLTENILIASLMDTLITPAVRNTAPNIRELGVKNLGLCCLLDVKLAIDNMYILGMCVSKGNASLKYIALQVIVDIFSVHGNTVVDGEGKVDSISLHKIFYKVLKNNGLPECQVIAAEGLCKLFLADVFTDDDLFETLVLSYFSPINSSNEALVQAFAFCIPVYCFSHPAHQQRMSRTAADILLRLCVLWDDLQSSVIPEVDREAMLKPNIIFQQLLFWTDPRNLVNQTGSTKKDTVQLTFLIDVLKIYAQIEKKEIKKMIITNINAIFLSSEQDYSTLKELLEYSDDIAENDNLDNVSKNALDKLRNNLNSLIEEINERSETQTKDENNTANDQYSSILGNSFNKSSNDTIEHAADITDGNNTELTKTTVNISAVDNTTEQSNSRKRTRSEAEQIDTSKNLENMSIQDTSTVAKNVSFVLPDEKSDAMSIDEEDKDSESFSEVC

T2: Ycs4, HEAT-repeat subunit I of S. cerevisiae condensin (S. cerevisiae, UniProt Q06156 1-1176)
T2 sequence: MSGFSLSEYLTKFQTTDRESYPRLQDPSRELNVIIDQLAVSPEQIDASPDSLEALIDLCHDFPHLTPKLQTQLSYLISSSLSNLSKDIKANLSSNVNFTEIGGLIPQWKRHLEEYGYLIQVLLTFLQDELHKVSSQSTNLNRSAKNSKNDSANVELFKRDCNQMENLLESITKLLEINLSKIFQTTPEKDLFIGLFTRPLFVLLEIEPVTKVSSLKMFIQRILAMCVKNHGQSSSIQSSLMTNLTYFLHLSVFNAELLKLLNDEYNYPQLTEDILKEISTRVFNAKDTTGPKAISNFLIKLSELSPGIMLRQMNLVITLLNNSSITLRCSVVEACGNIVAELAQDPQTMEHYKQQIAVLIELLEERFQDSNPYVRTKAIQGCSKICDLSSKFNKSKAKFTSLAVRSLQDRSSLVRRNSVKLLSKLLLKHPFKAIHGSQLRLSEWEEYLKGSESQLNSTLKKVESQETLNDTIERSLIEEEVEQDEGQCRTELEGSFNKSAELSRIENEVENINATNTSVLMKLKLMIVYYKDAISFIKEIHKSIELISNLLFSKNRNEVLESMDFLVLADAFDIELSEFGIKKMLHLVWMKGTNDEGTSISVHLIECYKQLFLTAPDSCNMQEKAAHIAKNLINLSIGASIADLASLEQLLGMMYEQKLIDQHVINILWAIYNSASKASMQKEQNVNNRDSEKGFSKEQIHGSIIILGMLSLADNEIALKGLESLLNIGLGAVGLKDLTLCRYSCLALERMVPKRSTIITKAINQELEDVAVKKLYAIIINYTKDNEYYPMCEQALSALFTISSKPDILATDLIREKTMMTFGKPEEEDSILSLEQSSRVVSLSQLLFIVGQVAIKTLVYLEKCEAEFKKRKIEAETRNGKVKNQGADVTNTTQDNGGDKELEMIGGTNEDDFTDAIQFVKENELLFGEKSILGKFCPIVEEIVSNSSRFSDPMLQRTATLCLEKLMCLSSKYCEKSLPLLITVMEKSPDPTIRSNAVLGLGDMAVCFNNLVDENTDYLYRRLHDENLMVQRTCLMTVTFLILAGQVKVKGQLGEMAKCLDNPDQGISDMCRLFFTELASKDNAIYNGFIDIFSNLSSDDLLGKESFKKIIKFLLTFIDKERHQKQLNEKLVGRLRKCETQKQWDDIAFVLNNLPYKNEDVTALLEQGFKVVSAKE


Experiments:
[1] = biological target: T1, Ycg1, HEAT-repeat subunit II of S. …; assay: co-purification
[2] = biological target: T2, Ycs4, HEAT-repeat subunit I of S. …; assay: cryo-EM structure
[3] = biological target: condensin holo complex Smc2-Smc4-Brn1-Ycs4-Ycg1, Walker B EQ mutant (Saccharomyces cerevisiae, UniProt P38989;Q12267;P38170;Q06156;Q06680 1-1170;1-1418;1-754;1-1176;1-1035, E1113Q;E1352Q); assay: cryo-EM
condensin holo complex Smc2-Smc4-Brn1-Ycs4-Ycg1, Walker B EQ mutant, sequence (P38989 whole entry E1113Q, chain 1 of 2): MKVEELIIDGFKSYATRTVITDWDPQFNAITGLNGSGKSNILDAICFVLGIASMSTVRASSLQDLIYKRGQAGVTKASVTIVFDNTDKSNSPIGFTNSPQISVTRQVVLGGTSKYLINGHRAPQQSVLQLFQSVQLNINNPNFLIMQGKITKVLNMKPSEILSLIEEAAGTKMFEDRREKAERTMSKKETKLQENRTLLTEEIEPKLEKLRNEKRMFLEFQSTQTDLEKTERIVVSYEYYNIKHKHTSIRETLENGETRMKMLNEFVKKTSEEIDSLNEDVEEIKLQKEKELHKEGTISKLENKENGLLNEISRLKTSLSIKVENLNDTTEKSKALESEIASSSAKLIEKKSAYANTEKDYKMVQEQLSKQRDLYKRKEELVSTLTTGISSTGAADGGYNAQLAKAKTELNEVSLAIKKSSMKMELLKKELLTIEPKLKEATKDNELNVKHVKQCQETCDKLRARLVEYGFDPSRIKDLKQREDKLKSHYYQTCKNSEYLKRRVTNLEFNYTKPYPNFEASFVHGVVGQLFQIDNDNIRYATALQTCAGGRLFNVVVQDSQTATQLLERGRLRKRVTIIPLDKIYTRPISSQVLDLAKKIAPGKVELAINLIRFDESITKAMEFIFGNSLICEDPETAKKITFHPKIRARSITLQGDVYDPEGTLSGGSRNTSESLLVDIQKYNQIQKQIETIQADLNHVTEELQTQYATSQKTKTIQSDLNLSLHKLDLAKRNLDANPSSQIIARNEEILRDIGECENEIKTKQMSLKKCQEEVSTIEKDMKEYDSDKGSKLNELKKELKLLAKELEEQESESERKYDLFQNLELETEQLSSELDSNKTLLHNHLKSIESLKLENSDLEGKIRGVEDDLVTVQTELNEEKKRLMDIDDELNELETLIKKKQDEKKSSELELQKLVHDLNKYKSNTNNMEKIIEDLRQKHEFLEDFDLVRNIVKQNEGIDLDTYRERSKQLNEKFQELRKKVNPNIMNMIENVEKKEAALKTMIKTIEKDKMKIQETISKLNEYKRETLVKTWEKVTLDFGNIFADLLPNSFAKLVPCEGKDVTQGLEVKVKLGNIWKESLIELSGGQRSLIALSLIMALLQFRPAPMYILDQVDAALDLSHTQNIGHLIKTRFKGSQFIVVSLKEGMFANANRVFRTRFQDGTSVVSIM
condensin holo complex Smc2-Smc4-Brn1-Ycs4-Ycg1, Walker B EQ mutant, sequence (Q12267 whole entry E1352Q, chain 2 of 2): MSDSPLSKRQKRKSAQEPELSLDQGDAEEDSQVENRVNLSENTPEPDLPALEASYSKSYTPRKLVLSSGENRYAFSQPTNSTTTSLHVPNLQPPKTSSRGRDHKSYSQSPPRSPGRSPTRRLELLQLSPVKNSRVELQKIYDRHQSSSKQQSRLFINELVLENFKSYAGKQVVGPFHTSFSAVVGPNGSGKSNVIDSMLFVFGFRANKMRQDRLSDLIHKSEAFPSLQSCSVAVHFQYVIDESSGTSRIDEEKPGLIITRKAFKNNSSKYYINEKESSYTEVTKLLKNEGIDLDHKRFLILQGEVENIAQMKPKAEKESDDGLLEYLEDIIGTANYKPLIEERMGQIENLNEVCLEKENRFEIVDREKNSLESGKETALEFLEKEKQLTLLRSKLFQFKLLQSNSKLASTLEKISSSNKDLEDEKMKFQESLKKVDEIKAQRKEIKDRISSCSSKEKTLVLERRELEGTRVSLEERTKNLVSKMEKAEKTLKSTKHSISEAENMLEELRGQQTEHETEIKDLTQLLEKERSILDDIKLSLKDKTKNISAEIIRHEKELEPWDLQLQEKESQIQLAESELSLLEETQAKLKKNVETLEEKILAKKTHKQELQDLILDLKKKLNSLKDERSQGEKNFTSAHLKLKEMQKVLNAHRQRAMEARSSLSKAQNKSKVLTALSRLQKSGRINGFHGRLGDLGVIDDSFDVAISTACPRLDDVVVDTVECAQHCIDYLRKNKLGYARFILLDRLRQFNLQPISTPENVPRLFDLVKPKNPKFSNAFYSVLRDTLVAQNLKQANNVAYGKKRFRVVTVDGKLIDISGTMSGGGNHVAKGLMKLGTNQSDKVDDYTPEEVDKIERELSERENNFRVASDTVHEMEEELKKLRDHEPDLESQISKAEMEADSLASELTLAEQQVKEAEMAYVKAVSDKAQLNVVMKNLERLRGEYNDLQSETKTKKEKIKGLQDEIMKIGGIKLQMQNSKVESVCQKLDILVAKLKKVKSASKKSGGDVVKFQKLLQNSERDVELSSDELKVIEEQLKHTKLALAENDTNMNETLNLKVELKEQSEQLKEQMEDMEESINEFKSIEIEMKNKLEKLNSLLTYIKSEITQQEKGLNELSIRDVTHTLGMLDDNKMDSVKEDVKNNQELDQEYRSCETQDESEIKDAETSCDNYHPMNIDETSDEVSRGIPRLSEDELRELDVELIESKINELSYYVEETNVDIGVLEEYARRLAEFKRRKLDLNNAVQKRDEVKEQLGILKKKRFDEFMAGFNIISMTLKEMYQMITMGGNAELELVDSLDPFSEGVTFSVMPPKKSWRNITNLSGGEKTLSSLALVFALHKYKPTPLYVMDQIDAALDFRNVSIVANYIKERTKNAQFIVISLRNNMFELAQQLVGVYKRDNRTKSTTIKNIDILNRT

Binder	binding result [1]	binding result [2]	binding result [3]
Brn1-His12-HA3, kleisin subunit of S. cerevisiae condensin (natural protein) MTTQLRYENNDDDERVEYNLFTNRSTMMANFEEWIKMATDNKINSRNSWNFALIDYFYDLDVLKDGENNINFQKASATLDGCIKIYSSRVDSVTTETGKLLSGLAQRKTNGASNGDDSNGGNGEGLGGDSDEANIEIDPLTGMPISNDPDVNNTRRRVYNRVLETTLVEFETIKMKELDQELIIDPLFKKALVDFDEGGAKSLLLNTLNIDNTARVIFDASIKDTQNVGQGKLQRKEEELIERDSLVDDENEPSQSLISTRNDSTVNDSVISAPSMEDEILSLGMDFIKFDQIAVCEISGSIEQLRNVVEDINQAKDFIENVNNRFDNFLTEEELQAAVPDNAEDDSDGFDMGMQQELCYPDENHDNTSHDEQDDDNVNSTTGSIFEKDLMAYFDENLNRNWRGREHWKVRNFKKANLVNKESDLLEETRTTIGDTTDKNTTDDKSMDTKKKHKQKKVLEIDFFKTDDSFEDKVFASKGRTKIDMPIKNRKNDTHYLLPDDFHFSTDRITRLFIKPGQKMSLFSHRKHTRGDVSSGLFEKSTVSANHSNNDIPTIADEHFWADNYERKEQEEKEKEQSKEVGDVVGGALDNPFEDDMDGVDFNQAFEGTDDNEEASVKLDLQDDEDHKFPIRENKVTYSRVSKKVDVRRLKKNVWRSINNLIQEHDSRKNREQSSNDSETHTEDESTKELKFSDIIQGISKMYSDDTLKDISTSFCFICLLHLANEHGLQITHTENYNDLIVNYEDLATTQAAS	binds	binds	–
50-bp dsDNA (cryo-EM) (dsDNA) DNA 1: GTTGACAGTGTCGCAACCTGCACAGGCAAGCTGCTGAGTCTGGTGTAGAC DNA 2: GTCTACACCAGACTCAGCAGCTTGCCTGTGCAGGTTGCGACACTGTCAAC	–	–	binds
